From patent US20240010735A1 (EISAI R AND D MANAGEMENT, published 2024) come the findings set out here.

Test [1] addresses T1, human EphA4 extracellular region-SEAP-His protein (human, UniProt P54764 20-547).
T1 construct: also called human EphA4 extracellular region-SEAP-His 10; not shown: secretory alkaline phosphatase (SEAP); histidine tag
Put plainly: SPR (Biacore T200): human EphA4 extracellular region-SEAP-His captured on anti-His antibody, antibody B 1.6-100 nM as analyte, 1:1 fit. On the procedure: The binding affinity of antibody B obtained in Example 1 against human EphA4 was determined by surface plasmon resonance (SPR method) employing Biacore T200 (GE Healthcare). First, anti-His antibodies (GE Healthcare, 28-9950-56) were fixed to a sensor chip CMS. Fixation was carried out by amine coupling method employing N-hydroxysuccinimide (NHS) and N-ethyl-N′-(3-dimethylaminopropyl) carbodiimide hydrochloride salt (EDC), and ethanolamine was employed for blocking (the sensor chip and reagents for fixation are all from GE Healthcare). This was diluted with the fixation buffer (10 mM sodium acetate, pH 4.5) to 3.5 μg/mL, and fixed onto the sensor chip according to the protocol accompanying Biacore T200. Human EphA4 extracellular region-SEAP-His 10 was diluted with the running buffer HBS-EP (GE Healthcare, BR-1001-88), and the solution was sent and captured onto the flow cell for 120 seconds (about 10 RU of captured amount). […] Fitting analysis by 1:1 binding model employing the software accompanying the system, BIA evaluation software, was carried out against the binding reaction curve obtained, and the affinity (KD=kd/ka) against human EphA4 was calculated.
Background: SPR reads the build-up and loss of mass on a sensor chip optically.

Test [2] addresses T2, mouse EphB6 extracellular region-Fc-His protein (mouse; human, UniProt O08644 33-591).
T2 construct: extracellular domain; not shown: Fc region of human IgG1; histidine tag
T2 sequence (looked up): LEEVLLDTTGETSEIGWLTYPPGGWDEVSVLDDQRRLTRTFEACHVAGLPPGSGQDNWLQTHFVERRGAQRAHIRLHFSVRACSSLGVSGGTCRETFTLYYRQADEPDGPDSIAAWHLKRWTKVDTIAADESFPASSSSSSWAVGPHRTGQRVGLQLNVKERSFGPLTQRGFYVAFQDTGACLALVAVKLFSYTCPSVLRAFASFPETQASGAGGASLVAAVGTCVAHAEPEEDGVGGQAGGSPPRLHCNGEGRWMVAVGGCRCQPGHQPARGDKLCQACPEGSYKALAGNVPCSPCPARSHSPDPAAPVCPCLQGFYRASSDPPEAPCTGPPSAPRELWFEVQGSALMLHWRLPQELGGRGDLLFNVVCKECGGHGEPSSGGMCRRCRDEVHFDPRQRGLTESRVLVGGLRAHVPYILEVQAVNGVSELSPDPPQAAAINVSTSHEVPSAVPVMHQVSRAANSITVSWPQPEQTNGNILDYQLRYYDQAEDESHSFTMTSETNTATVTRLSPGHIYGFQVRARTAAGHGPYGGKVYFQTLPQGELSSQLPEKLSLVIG
Put plainly: ELISA: Fc-His proteins (1 nM) captured on anti-6-His antibody, antibody B 10 µg/mL with human IgG 100 µg/mL, HRP anti-human kappa light chain antibody, OD450 as % of mouse EphA4-Fc-His. On the procedure:
(§1) Rabbit anti-6-His antibodies (Bethyl Laboratories) were coated onto the wells of a 96-well plate (Nunc). After incubating at 4° C. overnight, the wells were blocked at room temperature for 1 hour by 1% Block Ace (DS Pharma Biomedical). After washing 3 times with 0.05% Tween 20/PBS (Thermo […]), each Eph receptor of mouse extracellular region-Fc-His protein (final concentration 1 nM) was seeded into each well, and incubated at room temperature for 1 hour. After washing 3 times, human IgG solution (100 μg/mL, Sigma) and antibody B (10 μg/mL) were supplemented to the wells, and incubated at room temperature for 1 hour. Horseradish peroxidase-labeled goat anti-human Kappa Light Chain antibody (IBL) was added, and incubated at room temperature for 1 hour. After washing 3 times, TMBZ (3,3′,5,5′-tetramethylbenzidine, Sigma) solution was added to the wells, and upon confirmation of modest coloring, an equal amount of quenching solution (1 N H₂SO₄, Wako Pure Chemicals) was added to the wells, and absorbance at 450 nm was read by a microplate reader (PerkinElmer).
A general note: An ELISA detects its analyte on a solid surface through an enzyme-linked reagent.

The target of test [3] is T3, mouse EphB2 extracellular region-Fc-His protein (mouse; human, UniProt P54763 19-543).
T3 construct: extracellular domain; not shown: Fc region of human IgG1; histidine tag
T3 sequence (looked up): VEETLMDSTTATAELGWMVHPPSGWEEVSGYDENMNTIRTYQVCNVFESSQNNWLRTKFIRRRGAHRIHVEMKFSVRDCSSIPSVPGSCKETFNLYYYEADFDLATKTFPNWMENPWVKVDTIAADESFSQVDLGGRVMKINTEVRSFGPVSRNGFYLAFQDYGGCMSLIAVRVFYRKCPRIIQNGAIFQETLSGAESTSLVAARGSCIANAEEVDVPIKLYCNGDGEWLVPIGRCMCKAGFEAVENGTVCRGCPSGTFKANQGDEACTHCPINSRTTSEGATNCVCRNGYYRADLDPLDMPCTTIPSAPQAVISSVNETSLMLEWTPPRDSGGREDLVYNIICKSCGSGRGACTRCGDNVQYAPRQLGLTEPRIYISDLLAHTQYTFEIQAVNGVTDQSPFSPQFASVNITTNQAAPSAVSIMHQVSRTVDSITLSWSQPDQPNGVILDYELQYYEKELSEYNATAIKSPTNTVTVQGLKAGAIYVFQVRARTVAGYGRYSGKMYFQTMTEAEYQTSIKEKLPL
The description is as above. On the procedure: as §1

T1 sequence (P54764 20-547): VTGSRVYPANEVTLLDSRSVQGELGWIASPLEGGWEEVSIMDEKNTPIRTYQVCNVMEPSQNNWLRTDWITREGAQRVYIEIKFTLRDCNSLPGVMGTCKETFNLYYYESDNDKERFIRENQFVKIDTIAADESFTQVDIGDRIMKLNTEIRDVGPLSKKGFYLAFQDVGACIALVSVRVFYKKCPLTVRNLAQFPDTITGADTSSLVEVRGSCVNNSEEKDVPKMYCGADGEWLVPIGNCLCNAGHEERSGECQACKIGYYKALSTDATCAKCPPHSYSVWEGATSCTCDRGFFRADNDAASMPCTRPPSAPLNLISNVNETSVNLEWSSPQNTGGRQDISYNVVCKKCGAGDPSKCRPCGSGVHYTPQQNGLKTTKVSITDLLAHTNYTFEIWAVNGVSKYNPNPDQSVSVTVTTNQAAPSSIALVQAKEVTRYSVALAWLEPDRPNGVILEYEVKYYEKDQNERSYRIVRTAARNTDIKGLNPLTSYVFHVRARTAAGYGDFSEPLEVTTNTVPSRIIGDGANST

B1: humanized anti-EphA4 monoclonal antibody (antibody B) (antibody, human IgG2, V domains shown)
VH: QVQLVESGGGVVQPGRSLRLSCAVSGFSLTRFGVHWVRQAPGKGLEWVAVIWRGGSTDYNAAFMSRLTISKDNSKNTVYLQMNSLRAEDTAVYYCAKESLFGVYYDYGYYSMDYWGQGTTVTVSS
VL: DIQMTQSPSSLSASVGDRVTITCRASQEISGYLSWLQQKPGKAPKRLIYAASTLDSGVPSRFSGSRSGTEYTLTISSLQPEDFATYYCLQYASYPLTFGGGTKVEIKR
notes: expressed in Expi293F cells; also called humanized antibody of antibody A; HK2-42 / L1-8
As a reminder, the koff is the first-order rate constant of dissociation. A lower koff goes with slow dissociation. In general, kon refers to the rate constant with which the complex forms. The low end stands for slow association, the high end for fast association. In turn, B1 had an off-rate (koff) in test [1] of 0.000494 s⁻¹. The molecule also gave an association rate constant (kon) in test [1] of 370000 M⁻¹ s⁻¹. Besides, the binding result in test [2] and in test [3] was “no binding (tested: 10 µg/mL)” throughout.
